Experimental data from article PMC3769929.

Molecular target: hAgo1 (Homo sapiens, UniProt Q9UL18 1-857)
Test: X-ray crystallography

B1: let-7 22mer guide (ssRNA)
RNA: UGAGGUAGUAGGUUGUAUAGUU
modifications: 5' phosphate
  binding result: binds
